This test deals with BamA^Eco (Escherichia coli) (UniProt P0A940). Description: flow cytometry on cells. Conditions: remark: other sources report otherwise. (In general: In flow cytometry, cells or beads pass a laser one at a time.)

Turning to CdiA^EC93, Q3YL96 33-3132, the percent of target cells bound to inhibitor cells was found to be 73%.
